These results are taken from paper PMC11969024 (2025).

To fix the notation:
B1: peptide HD2 (from tick evasin EVA4) / CCL1 (biotinylated, synthetic) (parent complex)
chain 1: EEDDYTAYAPLTCYFT
chain 2: KSMQVPFSRCCFSFAEQEIPLRAILCYRNTSSICSNEGLIFKLKRGKEACALDTVGWVQRHRKMLRHCPSKRK
B2: peptide HD2 (from tick evasin EVA4) / CCL18 (biotinylated, synthetic) (parent complex)
chain 1: EEDDYTAYAPLTCYFT
chain 2: AQVGTNKELCCLVYTSWQIPQKFIVDYSETSPQCPKPGVILLTKRGRQICADPNKKWVQKYISDLKLNA

In one test the parent is B1.
For chain 1 EEDDYTAYADLTCYFT, the enrichment is -1.68 log2 (difference from the parental peptide).
With chain 1 EEDDYTAYAELTCYFT, the enrichment is -5.54 log2 (difference from the parental peptide).
Same read-out and setting: the same measure for chain 1 EEDDYTAYAGLTCYFT: -5.87 log2 (difference from the parental peptide).
On the same count and under the same terms, the same measure for chain 1 EEDDYTAYAWLTCYFT: -5.49 log2 (difference from the parental peptide); for chain 1 EEDDYTAYAVLTCYFT: -9.61 log2 (difference from the parental peptide); for chain 1 EEDDYTAYALLTCYFT: -8.15 log2 (difference from the parental peptide).
Consider chain 1 EEDDYTAYAPLTCAFT, for which the enrichment was -7.68 log2 (difference from the parental peptide).
Still for that read-out and setting: the same measure for chain 1 EEDDYTAYAPLTCSFT: -6.58 log2 (difference from the parental peptide); for chain 1 EEDDYTAYAPLTCHFT: -5.22 log2 (difference from the parental peptide).
Still for that read-out and setting: the value for chain 1 EEDDYTAYAPLTCVFT was -4.97 log2 (difference from the parental peptide); that for chain 1 EEDDYTAYAPLTCLFT was -6.02 log2 (difference from the parental peptide).
chain 1 EEDDYTAYAPLTCCFT: the enrichment was -6.55 log2 (difference from the parental peptide).
With chain 1 EEDMYTAYAPLTCYFT, the enrichment was -5.27 log2 (difference from the parental peptide).
The same measure, in the same setting: the same measure for chain 1 EEDSYTAYAPLTCYFT: -6.83 log2 (difference from the parental peptide); for chain 1 EEDEYTAYAPLTCYFT: -2.17 log2 (difference from the parental peptide); for chain 1 ETDDYTAYAPLTCYFT: -2.76 log2 (difference from the parental peptide).
Regarding chain 1 EDDDYTAYAPLTCYFT, the enrichment was 1.47 log2 (difference from the parental peptide).
Still for that read-out and setting: the same measure for chain 1 EMDDYTAYAPLTCYFT: -2.13 log2 (difference from the parental peptide).
The same measure, in the same setting: the value for chain 1 ENDDYTAYAPLTCYFT was -2.76 log2 (difference from the parental peptide); that for chain 1 EWDDYTAYAPLTCYFT was -0.836 log2 (difference from the parental peptide); that for chain 1 EQDDYTAYAPLTCYFT was -3.13 log2 (difference from the parental peptide).
Take chain 1 ERDDYTAYAPLTCYFT: the enrichment was -4.77 log2 (difference from the parental peptide).
For the variant chain 1 EPDDYTAYAPLTCYFT, the enrichment is -5.28 log2 (difference from the parental peptide).
Still for that read-out and setting: the same measure for chain 1 EEDDYTAYAPLTCYFR: -4.51 log2 (difference from the parental peptide).
Same read-out and setting: the value for chain 1 EEDDYTAYAPLTCYFI was -0.756 log2 (difference from the parental peptide); that for chain 1 EEDDYTAYAPLTCYFY was -0.704 log2 (difference from the parental peptide); that for chain 1 EEDDYTAYAPLTCYFD was 2.85 log2 (difference from the parental peptide).
In the case of chain 1 EEDDYTAYAPLTCYFK, the enrichment was -1.01 log2 (difference from the parental peptide).
For chain 1 VEDDYTAYAPLTCYFT, the enrichment is -1.48 log2 (difference from the parental peptide).
Same read-out and setting: the same measure for chain 1 NEDDYTAYAPLTCYFT: -1.4 log2 (difference from the parental peptide).
Regarding chain 1 MEDDYTAYAPLTCYFT, the enrichment was -0.363 log2 (difference from the parental peptide).
On the same count and under the same terms, the same measure for chain 1 AEDDYTAYAPLTCYFT: -1.47 log2 (difference from the parental peptide); for chain 1 SEDDYTAYAPLTCYFT: -1.56 log2 (difference from the parental peptide); for chain 1 EEMDYTAYAPLTCYFT: -2.32 log2 (difference from the parental peptide).
In the case of chain 1 EEPDYTAYAPLTCYFT, the enrichment is -2.66 log2 (difference from the parental peptide).
Same read-out and setting: the value for chain 1 EEIDYTAYAPLTCYFT was -4.23 log2 (difference from the parental peptide); that for chain 1 EEFDYTAYAPLTCYFT was -4 log2 (difference from the parental peptide); that for chain 1 EEHDYTAYAPLTCYFT was -3.87 log2 (difference from the parental peptide).
As for chain 1 EEQDYTAYAPLTCYFT, the enrichment was -3.22 log2 (difference from the parental peptide).
Still for that read-out and setting: the value for chain 1 EELDYTAYAPLTCYFT was -3.89 log2 (difference from the parental peptide).
Still for that read-out and setting: the same measure for chain 1 EEYDYTAYAPLTCYFT: -2.01 log2 (difference from the parental peptide).
The same measure, in the same setting: the value for chain 1 EEDDYLAYAPLTCYFT was -3.32 log2 (difference from the parental peptide).
chain 1 EEDDYAAYAPLTCYFT: the enrichment is 2.46 log2 (difference from the parental peptide).
On the same count and under the same terms, the value for chain 1 EEDDYKAYAPLTCYFT was -3.59 log2 (difference from the parental peptide).
Same read-out and setting: the value for chain 1 EEDDYRAYAPLTCYFT was -1.22 log2 (difference from the parental peptide); that for chain 1 EEDDYMAYAPLTCYFT was -2.14 log2 (difference from the parental peptide); that for chain 1 EEDDYSAYAPLTCYFT was 4.57 log2 (difference from the parental peptide).
Same read-out and setting: the value for chain 1 EEDDYTAYAPLTCYQT was 0.462 log2 (difference from the parental peptide).
chain 1 EEDDYTAYAPLTCYRT: the enrichment is -0.358 log2 (difference from the parental peptide).
On the same count and under the same terms, the value for chain 1 EEDDYTAYAPLTCYKT was -1.11 log2 (difference from the parental peptide).
Same read-out and setting: the value for chain 1 EEDDYTAYAPLTCYDT was -3.07 log2 (difference from the parental peptide); that for chain 1 EEDDYTAYAPLTCYGT was -3.15 log2 (difference from the parental peptide).
The same measure, in the same setting: the same measure for chain 1 EEDDYTAYAPLTCYPT: -0.0179 log2 (difference from the parental peptide); for chain 1 EEDDYTAYAPLTCYIT: 2.23 log2 (difference from the parental peptide).
For the variant chain 1 EEDDYTAYAPLTCYMT, the enrichment was 1.5 log2 (difference from the parental peptide).
Still for that read-out and setting: the same measure for chain 1 EEDDNTAYAPLTCYFT: -6.94 log2 (difference from the parental peptide); for chain 1 EEDDYTSYAPLTCYFT: -0.477 log2 (difference from the parental peptide); for chain 1 EEDDYTQYAPLTCYFT: 2.46 log2 (difference from the parental peptide).
On the same count and under the same terms, the value for chain 1 EEDDYTDYAPLTCYFT was 0.378 log2 (difference from the parental peptide).
As to chain 1 EEDDYTKYAPLTCYFT, the enrichment is 2.4 log2 (difference from the parental peptide).
On the same count and under the same terms, the same measure for chain 1 EEDDYTPYAPLTCYFT: -0.46 log2 (difference from the parental peptide).
Same read-out and setting: the value for chain 1 EEDDYTGYAPLTCYFT was -2.66 log2 (difference from the parental peptide); that for chain 1 EEDDYTVYAPLTCYFT was -4.61 log2 (difference from the parental peptide); that for chain 1 EEDDYTYYAPLTCYFT was -2.42 log2 (difference from the parental peptide).
The same measure, in the same setting: the same measure for chain 1 EEDDYTTYAPLTCYFT: -3.41 log2 (difference from the parental peptide); for chain 1 EEDDYTAYAPLLCYFT: -0.228 log2 (difference from the parental peptide).
For the variant chain 1 EEDDYTAYAPLQCYFT, the enrichment was -2.05 log2 (difference from the parental peptide).
Same read-out and setting: the same measure for chain 1 EEDDYTAYAPLICYFT: -1.49 log2 (difference from the parental peptide); for chain 1 EEDDYTAYAPLKCYFT: -1.81 log2 (difference from the parental peptide).
The same measure, in the same setting: the value for chain 1 EEDDYTAYAPLHCYFT was -0.868 log2 (difference from the parental peptide); that for chain 1 EEDDYTAYAPLMCYFT was -0.791 log2 (difference from the parental peptide); that for chain 1 EEDDYTAYAPLECYFT was -2.48 log2 (difference from the parental peptide).
On the same count and under the same terms, the value for chain 1 EEDDYTAYAPLDCYFT was -0.0823 log2 (difference from the parental peptide); that for chain 1 EEDDYTAYAPLFCYFT was -1.45 log2 (difference from the parental peptide).
Take chain 1 EEDDYTAYAPLTRYFT: the enrichment is -9.78 log2 (difference from the parental peptide).
On the same count and under the same terms, the value for chain 1 EEDDYTAYAPLTFYFT was -7.86 log2 (difference from the parental peptide); that for chain 1 EEDDYTAYAPLTMYFT was -7.16 log2 (difference from the parental peptide); that for chain 1 EEDDYTAYAPLTTYFT was -4.75 log2 (difference from the parental peptide).
chain 1 EEDDYTAYAPLTWYFT: the enrichment is -8.88 log2 (difference from the parental peptide).
Consider chain 1 EEDDYTAYAPLTQYFT, for which the enrichment is -7.02 log2 (difference from the parental peptide).
Consider chain 1 EEDDYTAYQPLTCYFT, for which the enrichment is -0.52 log2 (difference from the parental peptide).
On the same count and under the same terms, the value for chain 1 EEDDYTAYMPLTCYFT was -5.21 log2 (difference from the parental peptide); that for chain 1 EEDDYTAYGPLTCYFT was -5.92 log2 (difference from the parental peptide); that for chain 1 EEDDYTAYVPLTCYFT was -7.56 log2 (difference from the parental peptide).
On the same count and under the same terms, the same measure for chain 1 EEDDYTAYTPLTCYFT: -4.64 log2 (difference from the parental peptide); for chain 1 EEDDYTAYLPLTCYFT: -6.22 log2 (difference from the parental peptide).
The same measure, in the same setting: the same measure for chain 1 EEDDYTAYNPLTCYFT: -5.08 log2 (difference from the parental peptide); for chain 1 EEDDYTAYIPLTCYFT: -6.64 log2 (difference from the parental peptide).
Consider chain 1 EEDDYTAYRPLTCYFT, for which the enrichment was -5.43 log2 (difference from the parental peptide).
The same measure, in the same setting: the same measure for chain 1 EEDDYTAYWPLTCYFT: -3 log2 (difference from the parental peptide); for chain 1 EEDDYTAYPPLTCYFT: -5.04 log2 (difference from the parental peptide); for chain 1 EEDDYTAIAPLTCYFT: -5.15 log2 (difference from the parental peptide).
Still for that read-out and setting: the same measure for chain 1 EEDDYTADAPLTCYFT: -6.77 log2 (difference from the parental peptide); for chain 1 EEDDYTAWAPLTCYFT: -3.69 log2 (difference from the parental peptide).
Still for that read-out and setting: the same measure for chain 1 EEDDYTAAAPLTCYFT: -8 log2 (difference from the parental peptide); for chain 1 EEDDYTAYAPMTCYFT: 2.12 log2 (difference from the parental peptide).
With chain 1 EEDDYTAYAPHTCYFT, the enrichment was -1.29 log2 (difference from the parental peptide).
On to chain 1 EEDDYTAYAPKTCYFT, for which the enrichment was -0.661 log2 (difference from the parental peptide).

In a further test the parent is B2.
For chain 1 EEDDYEAYAPLTCYFT, the enrichment is 2.48 log2 (difference from the parental peptide).
In the case of chain 1 EEDDYVAYAPLTCYFT, the enrichment is -3.07 log2 (difference from the parental peptide).
For chain 1 EEDDYTNYAPLTCYFT, the enrichment was -0.0931 log2 (difference from the parental peptide).
Still for that read-out and setting: the same measure for chain 1 EEDDYTAYAPLNCYFT: -1.81 log2 (difference from the parental peptide); for chain 1 EEDDYTAYAPLTCHFT: -1.38 log2 (difference from the parental peptide).
Still for that read-out and setting: the value for chain 1 EEDDYTAYAPLTCGFT was -8.38 log2 (difference from the parental peptide); that for chain 1 EEDDYTAYAPLTCYFF was -0.482 log2 (difference from the parental peptide); that for chain 1 EEWDYTAYAPLTCYFT was -1.95 log2 (difference from the parental peptide).
chain 1 EEMDYTAYAPLTCYFT: the enrichment was -1.4 log2 (difference from the parental peptide).
Take chain 1 EEDDYTAYAPHTCYFT: the enrichment was 0.897 log2 (difference from the parental peptide).
For the variant chain 1 EEDDYTAYAPWTCYFT, the enrichment is 0.64 log2 (difference from the parental peptide).
With chain 1 EEDDYTAYAPLTCYGT, the enrichment was -4.09 log2 (difference from the parental peptide).
Still for that read-out and setting: the value for chain 1 EEDDYTAYAPLTCYAT was 0.456 log2 (difference from the parental peptide).
Still for that read-out and setting: the same measure for chain 1 AEDDYTAYAPLTCYFT: -0.823 log2 (difference from the parental peptide).
